# B1: full-length BICD2 tagged on the C-terminus with mini-TurboID (BICD2-mTrbo) [human] / Dynein intermediate chain (DYNC1I1) [human (endogenous in HEK293)] (parent)
# chain 1: MSAPSEEEEYARLVMEAQPEWLRAEVKRLSHELAETTREKIQAAEYGLAVLEEKHQLKLQFEELEVDYEAIRSEMEQLKEAFGQAHTNHKKVAADGESREESLIQESASKEQYYVRKVLELQTELKQLRNVLTNTQSENERLASVAQELKEINQNVEIQRGRLRDDIKEYKFREARLLQDYSELEEENISLQKQVSVLRQNQVEFEGLKHEIKRLEEETEYLNSQLEDAIRLKEISERQLEEALETLKTEREQKNSLRKELSHYMSINDSFYTSHLHVSLDGLKFSDDAAEPNNDAEALVNGFEHGGLAKLPLDNKTSTPKKEGLAPPSPSLVSDLLSELNISEIQKLKQQLMQMEREKAGLLATLQDTQKQLEHTRGSLSEQQEKVTRLTENLSALRRLQASKERQTALDNEKDRDSHEDGDYYEVDINGPEILACKYHVAVAEAGELREQLKALRSTHEAREAQHAEEKGRYEAEGQALTEKVSLLEKASRQDRELLARLEKELKKVSDVAGETQGSLSVAQDELVTFSEELANLYHHVCMCNNETPNRVMLDYYREGQGGAGRTSPGGRTSPEARGRRSPILLPKGLLAPEAGRADGGTGDSSPSPGSSLPSPLSDPRREPMNIYNLIAIIRDQIKHLQAAVDRTTELSRQRIASQELGPAVDKDKEALMEEILKLKSLLSTKREQITTLRTVLKANKQTAEVALANLKSKYENEKAMVTETMMKLRNELKALKEDAATFSSLRAMFATRCDEYITQLDEMQRQLAAAEDEKKTLNSLLRMAIQQKLALTQRLELLELDHEQTRRGRAKAAPKTKPATPSL
# chain 2: MSDKSDLKAELERKKQRLAQIREEKKRKEEERKKKEADMQQKKEPVQDDSDLDRKRRETEALLQSIGISPEPPLVQPLHFLTWDTCYFHYLVPTPMSPSSKSVSTPSEAGSQDSGDLGPLTRTLQWDTDPSVLQLQSDSELGRRLHKLGVSKVTQVDFLPREVVSYSKETQTPLATHQSEEDEEDEEMVESKVGQDSELENQDKKQEVKEAPPRELTEEEKQQILHSEEFLIFFDRTIRVIERALAEDSDIFFDYSGRELEEKDGDVQAGANLSFNRQFYDEHWSKHRVVTCMDWSLQYPELMVASYNNNEDAPHEPDGVALVWNMKFKKTTPEYVFHCQSSVMSVCFARFHPNLVVGGTYSGQIVLWDNRSHRRTPVQRTPLSAAAHTHPVYCVNVVGTQNAHNLITVSTDGKMCSWSLDMLSTPQESMELVYNKSKPVAVTGMAFPTGDVNNFVVGSEEGTVYTACRHGSKAGIGEVFEGHQGPVTGINCHMAVGPIDFSHLFVTSSFDWTVKLWTTKHNKPLYSFEDNADYVYDVMWSPVHPALFACVDGMGRLDLWNLNNDTEVPTASVAIEGASALNRVRWAQAGKEVAVGDSEGRIWVYDVGELAVPHNDEWTRFARTLVEIRANRADSEEEGTVELSA
# Variants of: B1
# Assay: co-immunoprecipitation (V5 trap beads) with western blot quantification
# Settings: parent: 1, read off a plot
row,ratio to parent,Variant
1,4.6,chain 1 R747C
2,5.1,chain 1 R694C
3,1.8,chain 1 N188T

# Source: publication PMC12674617
